In the Immune Epitope Database (IEDB) one finds Kd and IC50 data, which are given here for six sequences.

Experiment [1] has as its target HLA-B*35:01. Briefly: IEDB peptide-MHC binding, purified MHC/direct/fluorescence; filed as Kd, often an IC50 or EC50 that approximates it; ≥ and ≤ were set here for values at or beyond the usual limits of such assays. To be noted: source organism: Vibrio parahaemolyticus RIMD 2210633.
For the next experiment, the target named is HLA-B*46:01. Briefly: IEDB peptide-MHC binding, purified MHC/competitive/fluorescence; filed as Kd, often an IC50 or EC50 that approximates it; ≥ and ≤ were set here for values at or beyond the usual limits of such assays.
In experiment [2] the target is HLA-A*02:01. Put plainly: IEDB peptide-MHC binding, purified MHC/competitive/fluorescence; ≥ and ≤ were set here for values at or beyond the usual limits of such assays. Conditions: source organism: Zaire ebolavirus.
The target in experiment [3] is HLA-A*03:01. Described as above. To be noted: source organism: Zaire ebolavirus.
Experiment [4] has as its target HLA-A*11:01. The experiment is described as above. To be noted: source organism: Zaire ebolavirus.
The target of another experiment is HLA-A*02:03. Briefly: IEDB peptide-MHC binding, purified MHC/direct/fluorescence; filed as Kd, often an IC50 or EC50 that approximates it; ≥ and ≤ were set here for values at or beyond the usual limits of such assays.
For the next experiment, the target named is HLA-A*02:11. The description is as above.
Another experiment deals with HLA-A*02:12. The description is as above.
The target in the next experiment is HLA-A*02:16. The experiment is described as above.
The target of the next experiment is HLA-A*02:19. The description is as above.
The target of experiment [5] is HLA-A*03:01. The description is as above.
The target in a further experiment is HLA-A*23:01. Described as above.
The target of a further experiment is HLA-A*24:03. The experiment is described as above.
Another experiment has as its target HLA-A*29:02. The experiment is described as above.
Experiment [6] deals with HLA-A*68:02. Described as above.
For experiment [7], the target named is HLA-A*02:01. Briefly: IEDB peptide-MHC binding, purified MHC/competitive/fluorescence; filed as Kd, often an IC50 or EC50 that approximates it; ≥ and ≤ were set here for values at or beyond the usual limits of such assays.
For experiment [8], the target named is HLA-A*26:01. The experiment is described as above.
The target in a further experiment is HLA-A*69:01. The description is as above.
The target in experiment [9] is HLA-B*15:01. The experiment is described as above.
A further experiment addresses HLA-B*15:17. Described as above.
For another experiment, the target named is HLA-B*18:01. The description is as above.
The target in the next experiment is HLA-B*27:03. The description is as above. Conditions: source organism: Zaire ebolavirus.
A further experiment deals with HLA-B*39:01. The experiment is described as above.
A further experiment has as its target HLA-B*51:01. The experiment is described as above.
A further experiment has as its target HLA-B*57:01. The description is as above.
A further experiment deals with HLA-C*03:03. Put plainly: IEDB peptide-MHC binding, purified MHC/direct/fluorescence; filed as Kd, often an IC50 or EC50 that approximates it; ≥ and ≤ were set here for values at or beyond the usual limits of such assays.
Another experiment deals with HLA-C*12:03. Described as above.
A further experiment has as its target HLA-B*27:05. The description is as above.
In another experiment the target is HLA-A*01:01. Described as above. Conditions: source organism: Influenza A virus (A/tiger/Thailand/CU-T4/04(H5N1)).
For experiment [10], the target named is HLA-A*02:01. Described as above. To be noted: source organism: Influenza A virus (A/tiger/Thailand/CU-T4/04(H5N1)).
Experiment [11] addresses HLA-A*11:01. The experiment is described as above. To be noted: source organism: Influenza A virus (A/tiger/Thailand/CU-T4/04(H5N1)).
Experiment [12] has as its target HLA-A*26:01. The experiment is described as above. Conditions: source organism: Influenza A virus(A/swine/Shandong/fZC/2003(H9N2)).
In the next experiment the target is HLA-A*31:01. The experiment is described as above. Conditions: source organism: Influenza A virus (A/tiger/Thailand/CU-T4/04(H5N1)).
The target in a further experiment is HLA-B*07:02. The description is as above. To be noted: source organism: Influenza A virus (A/tiger/Thailand/CU-T4/04(H5N1)).
The target in experiment [13] is HLA-B*15:01. Described as above. To be noted: source organism: Influenza A virus (A/Puerto Rico/8/34/Mount Sinai(H1N1)).
Another experiment deals with HLA-B*58:01. The description is as above. Conditions: source organism: Influenza A virus (A/tiger/Thailand/CU-T4/04(H5N1)).
In a further experiment the target is HLA-A*02:06. Put plainly: IEDB peptide-MHC binding, purified MHC/competitive/fluorescence; filed as Kd, often an IC50 or EC50 that approximates it; ≥ and ≤ were set here for values at or beyond the usual limits of such assays. To be noted: source organism: Influenza A virus (A/duck/Hong Kong/3096/99(H6N2)).
The target in a further experiment is HLA-A*26:02. The description is as above. Conditions: source organism: Influenza A virus (A/duck/Hong Kong/3096/99(H6N2)).
Experiment [14] deals with HLA-A*68:02. The experiment is described as above. Conditions: source organism: Influenza A virus (A/duck/Hong Kong/3096/99(H6N2)).
Another experiment addresses HLA-B*08:01. Described as above. Conditions: source organism: Influenza A virus (A/duck/Hong Kong/3096/99(H6N2)).
In experiment [15] the target is HLA-B*35:01. The experiment is described as above. Conditions: source organism: Influenza A virus (A/duck/Hong Kong/3096/99(H6N2)).
The mark [16] stands for this setting: source organism: Zaire ebolavirus.
The mark [17] stands for this setting: source organism: Vaccinia virus WR.
[18] abbreviates: source organism: Mycobacterium avium.
Setting [19] is: source organism: Influenza A virus(A/swine/Shandong/fZC/2003(H9N2)).
Setting [20] is: source organism: Influenza A virus (A/tiger/Thailand/CU-T4/04(H5N1)).
Where [21] appears, read: source organism: Influenza A virus (A/duck/Hong Kong/3096/99(H6N2)).

The Kd is the constant that tells how readily two partners part at equilibrium. A low value points to tighter binding. FAAWIQQTY: the Kd in the experiment with HLA-B*35:01 [1] stood at 10 nM; with HLA-B*46:01 (source organism: Vibrio parahaemolyticus AN-5034), 0.125 µM.
Broadly, the IC50 is the concentration needed to halve the response being measured. Low values mean greater potency, high ones weaker potency. As for FLILPQAKK, the IC50 came out at 64.7 µM with HLA-A*02:01 [2], 4.4 µM with HLA-A*03:01 [3] and 1670 nM in the experiment with HLA-A*11:01 [4]. The Kd with HLA-A*02:03 (setting [16]), with HLA-A*02:11 (setting [16]), in the experiment with HLA-A*02:12 (setting [16]), in the experiment with HLA-A*02:16 (setting [16]), with HLA-A*02:19 (setting [16]) and with HLA-A*03:01 [5] (setting [16]) was at least 20 µM each time. Besides, the Kd in the experiment with HLA-A*23:01 (setting [16]), with HLA-A*24:03 (setting [16]), in the experiment with HLA-A*29:02 (setting [16]), with HLA-A*68:02 [6] (setting [16]), with HLA-A*02:01 [7] (setting [16]) and in the experiment with HLA-A*26:01 [8] (setting [16]) was at least 20 µM in each case. The Kd with HLA-A*69:01 (setting [16]), with HLA-B*15:01 [9] (setting [16]), with HLA-B*15:17 (setting [16]), in the experiment with HLA-B*18:01 (setting [16]), in the experiment with HLA-B*27:03 and in the experiment with HLA-B*39:01 (setting [16]) was at least 20 µM in each case. In addition, the Kd with HLA-B*46:01 (setting [16]), in the experiment with HLA-B*51:01 (setting [16]) and with HLA-B*57:01 (setting [16]) was at least 20 µM each time.
As for FLRDNLYHV, the Kd with HLA-C*03:03 (setting [17]) was at least 20000 nM; with HLA-C*12:03 (setting [17]) it was 29 nM; in the experiment with HLA-A*02:01 [7] (setting [17]), 0.0016 µM.
With GRFQEALKK, the Kd with HLA-A*02:03 (source organism: Choclo virus), in the experiment with HLA-A*02:11 (source organism: Choclo virus), in the experiment with HLA-A*02:12 (source organism: Choclo virus), in the experiment with HLA-A*02:16 (source organism: Choclo virus), in the experiment with HLA-A*02:19 (source organism: Choclo virus) and with HLA-A*03:01 [5] (source organism: Choclo virus) was at least 20 µM throughout. Further, the Kd with HLA-A*23:01 (source organism: Choclo virus) is at least 20 µM; in the experiment with HLA-A*24:03 (source organism: Choclo virus) it was at least 20 µM; with HLA-A*29:02 (source organism: Choclo virus), at least 20 µM; in the experiment with HLA-A*68:02 [6] (source organism: Choclo virus) it was at least 20 µM; in the experiment with HLA-B*27:05 (source organism: Orthohantavirus andesense), 71.7 nM; with HLA-A*02:01 [7] (source organism: Choclo virus), at least 20 µM. The Kd with HLA-A*26:01 [8] (source organism: Choclo virus), with HLA-A*69:01 (source organism: Choclo virus), with HLA-B*15:01 [9] (source organism: Choclo virus), with HLA-B*15:17 (source organism: Choclo virus), with HLA-B*18:01 (source organism: Choclo virus) and with HLA-B*39:01 (source organism: Choclo virus) was at least 20 µM throughout. Also, the Kd with HLA-B*46:01 (source organism: Choclo virus), with HLA-B*51:01 (source organism: Choclo virus) and with HLA-B*57:01 (source organism: Choclo virus) was at least 20 µM each time.
Take LAANFVVAL: the values for the Kd with HLA-C*03:03 (setting [18]) and with HLA-C*12:03 (setting [18]) were 124 nM and 206 nM, respectively.
Regarding TMLYNKMEF, the Kd was at least 20 µM with HLA-A*01:01; 604 nM in the experiment with HLA-A*02:01 [10]; at least 20 µM in the experiment with HLA-A*02:03 (setting [19]); 0.157 µM with HLA-A*02:11 (setting [19]); 3.47 µM in the experiment with HLA-A*02:12 (setting [19]); at least 5 µM with HLA-A*02:19 (setting [19]). For the same sequence, the Kd was at least 20 µM with HLA-A*03:01 [5] (setting [20]); at least 20 µM in the experiment with HLA-A*11:01 [11]; 0.047 µM in the experiment with HLA-A*23:01 (setting [20]); 0.0114 µM in the experiment with HLA-A*24:03 (setting [20]); at least 20 µM in the experiment with HLA-A*26:01 [12]; at least 20 µM in the experiment with HLA-A*31:01. Besides, the Kd in the experiment with HLA-B*07:02 was at least 20 µM; with HLA-B*15:01 [13], 118 nM; in the experiment with HLA-B*27:05 (setting [20]), at least 20000 nM; in the experiment with HLA-B*58:01, at least 20 µM; in the experiment with HLA-A*02:06, 312 nM; in the experiment with HLA-A*26:02, at least 20 µM. Besides, the Kd with HLA-A*68:02 [14] was 4.44 µM; in the experiment with HLA-B*08:01, 3000 nM; with HLA-B*15:17 (setting [21]), 0.311 µM; in the experiment with HLA-B*35:01 [15], 1260 nM; in the experiment with HLA-B*39:01 (setting [21]) it was at least 20 µM; with HLA-B*46:01 (setting [21]) it was at least 20 µM. In the experiment with HLA-B*57:01 (setting [21]), this sequence registered a Kd of at least 20 µM.
